Laboratory results as given in paper PMC2897766.

Experiments:
[1] = target: Ire1^bipless, GFP- and mCherry-tagged copies (FRET pair) (yeast) (UniProt P32361); experiment: FRET or BRET; microscopy-based FRET (spinning disc confocal) between GFP- and mCherry-tagged copies co-expressed in live yeast cells; cells treated with 5 mM DTT for 4 h (for Ire1^bipless only 'in the presence of DTT' is printed)
[2] = target: Ire1^bipless, GFP- and mCherry-tagged copies (FRET pair) (yeast) (UniProt P32361); experiment: FRET or BRET; microscopy-based FRET (spinning disc confocal) between GFP- and mCherry-tagged copies co-expressed in live yeast cells; untreated cells (no DTT)

“Ire1^bipless, GFP- and mCherry-tagged copies (FRET pair) (from UniProt P32361 19-474; P32361 527-1115) (natural protein)” was tested, and the FRET signal [1] was 0.71 a.u and the FRET signal [2] was 0.17 a.u.
